Experimental data as given in the supplement of paper PMC10724198.
± gives the standard deviation of the averaged measurements.

Experiments:
[1] = test system: Saccharomyces cerevisiae; experiment: protein stability index of tFT-peptide fusion (C-terminal peptide) (PSI (0-1 scale)); higher = more stable (slower turnover)
Procedure: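 MPS profiling in S. cerevisiae of the tFT-X12 degron library: putative degron peptides plus stable controls, 12 aa, fused to the C-terminus of a sfGFP-mCherry timer. Cells are FACS-sorted into 8 mCherry/sfGFP bins and deep-sequenced. PSI runs from 0 (unstable) to 1 (stable). Backgrounds are wild type, das1Δ and doa10Δ at 30 °C, and wild type, das1Δ, cdc34-1 and cdc53-1 at 37 °C; 2-3 technical replicates each.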

[2] = test system: Saccharomyces cerevisiae; experiment: as above; conditions: genetic background: wild type; temperature: 30 C
[3] = genetic background: cdc34-1, temperature: 37 C
[4] = genetic background: cdc53-1, temperature: 37 C
[5] = genetic background: das1 deletion, temperature: 30 C
[6] = genetic background: das1 deletion, temperature: 37 C
[7] = genetic background: doa10 deletion, temperature: 30 C
[8] = genetic background: wild type, temperature: 30 C
[9] = genetic background: wild type, temperature: 37 C
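Note: PSI is a weighted mean of sequencing reads over stability bins, variants kept only with over 10 reads, mCherry proximal and sfGFP distal, peptide attached via GGGS linker.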

Row | Sequence | protein stability index [1, 3] | protein stability index [1, 4] | protein stability index [1, 5] | protein stability index [1, 6] | protein stability index [1, 7] | protein stability index [1, 8] | protein stability index [1, 9] | protein stability index [2]
1 | STLPACNCLKLL | 0.663 ± 0.015 | 0.7607 ± 0.0055 | 0.622 ± 0.011 | 0.741 ± 0.013 | 0.332 ± 0.015 | 0.371 ± 0.03 | 0.565 ± 0.015 | 0.426 ± 0.069
2 | STNMDNRIRTLA | 0.659 ± 0.011 | 0.714 ± 0.012 | 0.638 ± 0.031 | 0.72 ± 0.013 | 0.311 ± 0.0059 | 0.356 ± 0.023 | 0.556 ± 0.017 | 0.431 ± 0.0013
3 | SVIVSSFFLWVF | 0.381 ± 0.051 | 0.454 ± 0.035 | 0.298 ± 0.03 | 0.482 ± 0.0072 | 0.2026 ± 0.00069 | 0.223 ± 0.029 | 0.426 ± 0.016 | 0.288 ± 0.019
4 | SVLVWFLVFLVW | 0.209 ± 0.0046 | 0.235 ± 0.02 | 0.223 ± 0.028 | 0.3733 ± 0.0037 | 0.218 ± 0.019 | 0.211 ± 0.026 | 0.321 ± 0.042 | 0.315 ± 0.012
5 | SVVYCRMRVHFV | 0.403 ± 0.024 | 0.487 ± 0.046 | 0.373 ± 0.015 | 0.432 ± 0.014 | 0.263 ± 0.01 | 0.285 ± 0.02 | 0.3786 ± 0.0025 | 0.285 ± 0.0052
6 | SWGEQDRLTGYI | 0.715 ± 0.029 | 0.77 ± 0.02 | 0.689 ± 0.024 | 0.787 ± 0.0083 | 0.669 ± 0.018 | 0.674 ± 0.026 | 0.712 ± 0.023 | 0.7195 ± 0.0031
7 | SWMFKLCIQWNV | 0.5147 ± 0.0019 | 0.567 ± 0.023 | 0.502 ± 0.011 | 0.5321 ± 0.00098 | 0.467 ± 0.029 | 0.456 ± 0.013 | 0.49 ± 0.019 | 0.467 ± 0.012
8 | SWSLRLSTIFSV | 0.609 ± 0.11 | 0.664 ± 0.016 | 0.612 ± 0.025 | 0.667 ± 0.0072 | 0.189 ± 0.0053 | 0.219 ± 0.018 | 0.352 ± 0.022 | 0.367 ± 0.0041
9 | SYFASLLDLFTA | 0.727 ± 0.062 | 0.77 ± 0.0079 | 0.66 ± 0.011 | 0.766 ± 0.018 | 0.669 ± 0.018 | 0.674 ± 0.012 | 0.759 ± 0.021 | 0.598 ± 0.16
10 | TDSSWEVSLMVG | 0.679 ± 0.051 | 0.747 ± 0.036 | 0.612 ± 0.012 | 0.733 ± 0.016 | 0.605 ± 0.023 | 0.6186 ± 0.0039 | 0.741 ± 0.026 | 0.374 ± 0.053
11 | TDVLLLQLLISV | 0.202 ± 0.021 | 0.228 ± 0.059 | 0.225 ± 0.028 | 0.338 ± 0.018 | 0.184 ± 0.007 | 0.219 ± 0.032 | 0.316 ± 0.0075 | 0.311 ± 0.012
12 | TGPLVHLLCCCV | 0.354 ± 0.011 | 0.417 ± 0.011 | 0.313 ± 0.028 | 0.3955 ± 0.0013 | 0.284 ± 0.0075 | 0.315 ± 0.019 | 0.386 ± 0.0074 | 0.421 ± 0.011
13 | TKKGQTRPSRTD | 0.634 ± 0.0078 | 0.6989 ± 0.0024 | 0.642 ± 0.034 | 0.705 ± 0.017 | 0.6444 ± 0.0049 | 0.687 ± 0.029 | 0.696 ± 0.017 | 0.575 ± 0.21
14 | TLKRCFRWCRTT | 0.492 ± 0.095 | 0.71 ± 0.05 | 0.672 ± 0.018 | 0.699 ± 0.0095 | 0.105 ± 0.0068 | 0.11 ± 0.011 | 0.157 ± 0.031 | 0.176 ± 0.0047
15 | TLSRTPVSPSAP | 0.686 ± 0.051 | 0.738 ± 0.017 | 0.637 ± 0.018 | 0.706 ± 0.021 | 0.674 ± 0.032 | 0.6492 ± 0.0015 | 0.696 ± 0.022 | 0.7094 ± 0.0059
16 | TMSGVTRCVLVL | 0.521 ± 0.048 | 0.526 ± 0.04 | 0.385 ± 0.026 | 0.5463 ± 0.0053 | 0.339 ± 0.015 | 0.395 ± 0.02 | 0.5379 ± 0.0049 | 0.423 ± 0.015
17 | TNEWMDVKVFCY | 0.668 ± 0.0073 | 0.701 ± 0.052 | 0.499 ± 0.049 | 0.676 ± 0.0097 | 0.449 ± 0.028 | 0.486 ± 0.04 | 0.6398 ± 0.0051 | 0.491 ± 0.088
18 | TSFSSGEALGVG | 0.437 ± 0.0066 | 0.503 ± 0.021 | 0.442 ± 0.0075 | 0.5 ± 0.0091 | 0.4553 ± 0.0011 | 0.445 ± 0.013 | 0.48763 ± 3.8e-05 | 0.483 ± 0.01
19 | TVHVIVVCRELA | 0.4698 ± 0.0034 | 0.518 ± 0.015 | 0.39 ± 0.03 | 0.52 ± 0.017 | 0.201 ± 0.014 | 0.244 ± 0.025 | 0.381 ± 0.007 | 0.3271 ± 0.0022
20 | TVRLPLILPCVL | 0.5752 ± 0.0049 | 0.573 ± 0.031 | 0.421 ± 0.028 | 0.5669 ± 0.0053 | 0.414 ± 0.0034 | 0.42 ± 0.025 | 0.55 ± 0.013 | 0.4884 ± 0.0042
